Experimental data reported in PMC7039212 (The Journal of Cell Biology, 2019).

B1: PI3K p85α 1–315 aa (domain or fragment, human, UniProt P27986 1-315, looked up)
chain: MSAEGYQYRALYDYKKEREEDIDLHLGDILTVNKGSLVALGFSDGQEARPEEIGWLNGYNETTGERGDFPGTYVEYIGRKKISPPTPKPRPPRPLPVAPGSSKTEADVEQQALTLPDLAEQFAPPDIAPPLLIKLVEAIEKKGLECSTLYRTQSSSNLAELRQLLDCDTPSVDLEMIDVHVLADAFKRYLLDLPNPVIPAAVYSEMISLAPEVQSSEEYIQLLKKLIRSPSIPHQYWLTLQYLLKHFFKLSQTSSKNLLNARVLSEIFSPMLFRFSAASSDNTENLIKVIEILISTEWNERQPAPALPPKPPKPT

Tests used:
Experiment in all cases: MST
[1] = target: Cy5-G-actin (UniProt P68135)
[2] = target: T1, GFP-CD2AP-1-335 aa (human, UniProt Q9Y5K6 1-335)
T1 sequence (looked up): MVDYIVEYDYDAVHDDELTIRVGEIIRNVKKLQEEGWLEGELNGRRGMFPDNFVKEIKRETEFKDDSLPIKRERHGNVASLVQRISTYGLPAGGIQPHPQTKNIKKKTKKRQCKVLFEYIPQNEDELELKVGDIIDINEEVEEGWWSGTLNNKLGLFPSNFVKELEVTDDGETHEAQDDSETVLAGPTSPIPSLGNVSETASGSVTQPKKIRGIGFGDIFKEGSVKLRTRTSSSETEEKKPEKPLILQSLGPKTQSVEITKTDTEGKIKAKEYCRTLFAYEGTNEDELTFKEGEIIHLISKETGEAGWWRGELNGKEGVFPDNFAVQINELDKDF

[3] = target: T2, GFP-CD2AP-1–475 aa (human, UniProt Q9Y5K6 1-475)
T2 sequence (looked up): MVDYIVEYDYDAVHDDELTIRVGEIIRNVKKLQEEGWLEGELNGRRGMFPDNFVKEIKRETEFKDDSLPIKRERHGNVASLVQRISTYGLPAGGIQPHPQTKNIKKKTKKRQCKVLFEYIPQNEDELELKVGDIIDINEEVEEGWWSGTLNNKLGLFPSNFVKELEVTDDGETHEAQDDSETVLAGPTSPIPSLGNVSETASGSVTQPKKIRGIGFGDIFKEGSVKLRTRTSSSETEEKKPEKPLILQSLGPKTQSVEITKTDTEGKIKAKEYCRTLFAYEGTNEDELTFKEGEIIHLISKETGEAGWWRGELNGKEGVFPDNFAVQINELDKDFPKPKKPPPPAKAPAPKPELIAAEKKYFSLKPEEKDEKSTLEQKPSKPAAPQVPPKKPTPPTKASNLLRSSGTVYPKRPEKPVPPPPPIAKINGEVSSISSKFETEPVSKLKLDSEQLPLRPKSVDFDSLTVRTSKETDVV

Row | Kd [1] [nM] | Kd [2] [nM] | Kd [3] [nM] | Molecule
1 | 150 | – | – | profilin (from UniProt P07737 1-140) (natural protein)
2 | – | 350 | 940 | B1
